Results reported in patent publication US20210214432A1 (Y BIOLOGICS, published 2021).

T1: DLK1-hFc fusion protein (extracellular region of human DLK1 fused with human Fc) (human, UniProt P80370 24-303)
T1 construct: The ELISA text says 'DLK1 protein'/'antigen DLK1' coated at 100 ng/well; also called hDLK1; DLK1 antigen
T1 sequence: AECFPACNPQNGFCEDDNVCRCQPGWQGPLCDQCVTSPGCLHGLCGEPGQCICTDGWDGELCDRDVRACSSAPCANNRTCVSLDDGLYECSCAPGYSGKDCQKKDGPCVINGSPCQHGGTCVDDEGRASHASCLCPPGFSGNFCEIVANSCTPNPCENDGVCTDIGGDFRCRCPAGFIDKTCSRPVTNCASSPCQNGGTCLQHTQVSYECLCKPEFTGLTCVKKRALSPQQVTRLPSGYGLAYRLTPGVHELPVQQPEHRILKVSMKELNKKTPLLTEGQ

T2: human DLK1 present on the cell surface (DLK1-overexpressing MIA PaCa-2 cells); SK-N-F1 cells endogenously … (human, UniProt P80370 24-383)
T2 construct: whole, on cells; also called MIA PaCa-2 cells overexpressing DLK1
T2 sequence (looked up): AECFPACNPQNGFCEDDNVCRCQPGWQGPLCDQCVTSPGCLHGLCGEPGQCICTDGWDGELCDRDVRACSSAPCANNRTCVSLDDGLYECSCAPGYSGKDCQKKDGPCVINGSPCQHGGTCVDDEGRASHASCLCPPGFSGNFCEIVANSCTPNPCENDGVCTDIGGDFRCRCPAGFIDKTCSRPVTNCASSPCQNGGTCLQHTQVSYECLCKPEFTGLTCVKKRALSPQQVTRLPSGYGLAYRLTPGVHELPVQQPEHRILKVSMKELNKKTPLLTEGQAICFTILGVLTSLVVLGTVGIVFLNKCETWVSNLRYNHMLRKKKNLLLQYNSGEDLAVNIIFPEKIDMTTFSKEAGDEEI


Assays:
[1] = target: T1, DLK1-hFc fusion protein (extracellular …); test: ELISA, coated DLK1 antigen, IgG titrated 100 nM to 0.046 nM, GraphPad Prism fit
Experimental: First, 100 ng of DLK1 protein per well was seeded into an immuno-96 microwell plate using a coating buffer and surface-fixed at 4° C. overnight, PBS-T containing 200 μl of 4% skim milk powder was added to all wells, and then reacted for 1 hour at 37° C. to prevent nonspecific protein binding. Then, 200 μl of each cultured single scFv phage was added and reacted at 37° C. for 2 hours, washed three times with 200 μl of PBS-T, diluted at 1:2000 with mouse anti-M13-HPR antibody (GE healthcare, UK) conjugated with HRP (horseradish peroxidase), and reacted at 37° C. for 1 hour. The resulting product was washed three times with PBS-T again, and 10 μl of 30% hydrogen peroxide (H₂O₂) and a tablet of 4 mg OPD (o-phenylenediamine dihydrochloride, Sigma, USA) were added to 10 ml of PC buffer (0.1M Na₂HPO₄, 0.005M Na-citrate, pH 5.0) and reacted in the absence of light for 10 minutes. Then, the reaction was stopped with 50 μl of 2.5M sulfuric acid (H₂SO₄), and absorbance was measured at 490 nm using a spectrophotometer (SpectraMax M5 spectrophotometer, Molecular Devices, USA).

[2] = target: T2, human DLK1 present on the cell surface …; test: FACS, DLK1-overexpressing MIA PaCa-2 cells, antibody titrated 1/3 from 10 µg/ml
Experimental: Then, the cells were washed with cold PBS and then cultured at 4° C. for 1 hour using an anti-human IgG secondary antibody (Vector, USA) conjugated with fluorescein isothiocyanate (FITC, Vector, USA) fluorescence. Fluorescently stained cells were suspended in 500 μl of PBS containing 2% FBS (fetal bovine serum) and analyzed using a FACSCanto™ II flow cytometer (BD Biosciences, USA) and the amount of sample required to reach 50% of the maximum effect (EC₅₀) was measured.

[3] = target: T2, human DLK1 present on the cell surface …; test: cell-based or functional assay

| Binder | Kd [1] | EC50 [2] | EC50 of cytotoxicity of 18A5-Fab ZAP in DLK1-overexpressing MIA PaCa-2 cells [3] | EC50 of cytotoxicity of 18A5_AM_1A12-Fab ZAP in DLK1-overexpressing MIA PaCa-2 cells [3] | EC50 of cytotoxicity of 18A5_LS_1A10-Fab ZAP in DLK1-overexpressing MIA PaCa-2 cells [3] |
| --- | --- | --- | --- | --- | --- |
| human anti-DLK1 monoclonal antibody 18A5 (antibody, V domains shown, Converted from scFv to IgG; also called DLK1-18A5) VH: QVQLVQSGGAVVQPGHSLRLSCEASGFKFKDYGMHWVRQAPGKGLEWLAVISHDGRNKNYADSVKGRLTISRDNSKNTLSFQMNSLRAEDTAVYYCVRDWSYAFDIWGQGTLVTVSS VL: DIQMTQSPSFLSASVGDRVNITCRASQDISRRLAWYQQKPGKAPKLLIYGAASLQSAVASRFSGSGSGTEFTLTISSLQPEDFANYYCQQIYTTPLTFGGGTKVEIK | 520 pM | 0.131 µg/mL | 0.002 pM | – | – |
| human anti-DLK1 monoclonal antibody variant 18A5_AM_1A12 (antibody, V domains shown) VH: QVQLVQSGGGVVQPGGSLRLSCAASGFKFKDYGMHWVRQAPGKGLEWLAVISHDGRNKNYADSVKGRLTISRDNSKNTLSFQMNSLRAEDTAVYYCVRDWSYAFDIWGQGTLVTVSS VL: DIQMTQSPSFLSASVGDRVTITCRASHDISSSLAWYQQKSGKAPKLLIYSASNLKSGVPSRFSGSGSGTDFSLTISSLQPEDFATYYCQQSYTTVLTFGGGTKLEIK | 13 pM | 0.0903 µg/mL | – | 0.0026 pM | – |
| human anti-DLK1 monoclonal antibody variant 18A5_LS_1A10 (antibody, V domains shown) VH: QVQLVQSGGAVVQPGHSLRLSCEASGFKFKDYGMHWVRQAPGKGLEWLAVISHDGRNKNYADSVKGRLTISRDNSKNTLSFQMNSLRAEDTAVYYCVRDWSYAFDIWGQGTLVTVSS VL: DIQMTQSPSSLSASLGDRVTITCRASQGISSALAWYQQKPGKAPKLLIYAASSLQSGVPSRFSGSGSGTDFTLTINSLQPEDFATYYCQQSYTTPLTFGGGTKVEIK | 47 pM | 0.12 µg/mL | – | – | 0.0011 pM |
| human anti-DLK1 monoclonal antibody 35E2 (antibody, V domains shown, Converted from scFv to IgG) VH: QVQLVESGGGVVQPGRSLRLSCAASGFTFSSYAMHWVRQAPGKGLEWVAVIYSGGSTYYADSVKGRFTISRDNSKNTLYLQMNSLRAEDTAVYYCAREGSYDVMTYTRIGGYFDYWGQGALVTVSS VL: DIQMTQSPSSVSASVGDRVTITCRASQGISDWVAWYQQKPGKAPKLLIYAASSLQSGVPSRFSGSGSGTEFSLTISNLQPEDFATYYCQQANSFPLTFGPGTKVEIK | 330 pM | – | – | – | – |
| human anti-DLK1 monoclonal antibody 27F7 (antibody, V domains shown, Converted from scFv to IgG) VH: QMQLVESGGGLVKPGGSLTLSCDATGFNFGSYYMNWVRQAPGKGLEWLAHISSTGRTIYYADSVKGRFTISRDNAKSSLDLQMNSLRAEDTAVYYCARDQGYPFGMDVWGHGTTVTVSS VL: QLVLTQPSSVSGAPGQRVTISCTGSSSNIGAGYDVDWYQQLPGTAPKLLIYGNTNRPSGVPDRFSGSKSGTSASLAITGLQAEDDSDYYCQSYDSSLSAWVFGGGTKLTVL | 220 pM | – | – | – | – |
| human anti-DLK1 monoclonal antibody 17B11 (antibody, V domains shown, Converted from scFv to IgG (pNATVH/pNATVL, HEK293E)) VH: QVQLVESGGTLVQPGGSLRLSCAASGFTFSSHAMSWVRQTPGKGLEWVSSITKSGSGTYSADSVKGRFTISRDNSKNTLYLQMNSLRAEDTAVYYCTREGLGYYYGMDVWGQGTTVTVSS VL: QLVLTQPPSVSGAPGQRVIISCTGSSSNIGAGYDVHWYQQLPGTAPRLLIYGSTNRPSGVPDRFSGSKSGTSASLAITGLQAEDEADYYCQSYDNSLSAHYVFGTGTKVTVL | 7190 pM | – | – | – | – |
| human anti-DLK1 monoclonal antibody 20D3 (antibody, V domains shown, Converted from scFv to IgG) VH: QMQLVQSGGGLVQPGRSLRLSCAASGFTFDDYAMHWVRQAPGKGLEWVSGISWNSGSIGYADSVKGRFTISRDNAKNSLYLQMNSLRAEDTAVYYCTKGPGLATGKVYFNSWGQGTQVTVSS VL: DIQMTQSPSSVSASVGDRVTITCRASQRISSWLAWYQQKPGRAPKLLIHSASTLHNGVPSRFSGSASGTDFTLTISSLQPEDFAIYYCQQGHSFPYTFGQGTKLDIK | 54000 pM | – | – | – | – |
